Experiment [1] addresses T1, recombinant human IL-23 (human, UniProt Q9NPF7 20-189; P29460 23-328).
T1 construct: also called hIL-23
T1 sequence 1: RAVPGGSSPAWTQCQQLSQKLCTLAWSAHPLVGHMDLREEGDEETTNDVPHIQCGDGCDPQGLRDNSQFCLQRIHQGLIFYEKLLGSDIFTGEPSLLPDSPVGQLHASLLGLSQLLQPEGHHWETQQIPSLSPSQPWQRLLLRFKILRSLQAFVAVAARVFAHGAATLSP
T1 sequence 2: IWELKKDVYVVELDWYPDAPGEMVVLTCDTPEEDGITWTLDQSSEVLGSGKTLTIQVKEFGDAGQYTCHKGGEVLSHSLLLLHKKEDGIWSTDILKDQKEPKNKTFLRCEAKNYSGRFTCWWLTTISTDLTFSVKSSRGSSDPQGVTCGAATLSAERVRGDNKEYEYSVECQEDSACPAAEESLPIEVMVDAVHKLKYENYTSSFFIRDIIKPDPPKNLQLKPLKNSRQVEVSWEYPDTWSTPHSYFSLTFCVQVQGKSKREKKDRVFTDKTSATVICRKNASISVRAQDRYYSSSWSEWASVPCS
Description: SPR (Biacore T100), purified material captured on Protein A or anti-human IgG, IL-23 analyte at 256, 64, 16, 4, 1 nM. As to the method:
(§1) Protein A or an anti-human IgG (Biacore BR-1008-39) was immobilised on a Biacore CM5 chip by primary amine coupling in accordance with the manufacturer's instructions. Anti IL-23 antibodies were captured on this surface and after a period of stabilisation, […] was passed over the antibody captured surface and a binding sensorgram was obtained. […] All runs were double referenced with a buffer injection over the captured antibody surface. Data was analysed using the 1:1 model using the software inherent to the Biacore 3000 or T100 depending upon which machine was used to generate kinetics. Analysis was carried out at 25° C. using HBS-EP buffer. Data presented in Tables 3-6 are on tissue culture supernatants of CHO cells transiently expressing the antibody of interest unless otherwise indicated. Data was generated using concentrations of IL-23 (256, 64, 16, 4, 1 and 0.25 nM) The data shown for the humanized variants is representative of a number of runs, The chimeric mAb (8C9H6.HC1LC1) was only run once in each experiment, so data shown for this mAb is from that one run, […]
On the technique in general: Surface plasmon resonance follows binding to a sensor surface in real time, without labels.

In experiment [2] the target is T1, recombinant human IL-23. The experiment in a line: SPR (Biacore T100), CHO supernatant antibody captured on Protein A or anti-human IgG, IL-23 analyte at 10 concentrations 128-0.25 nM. As to the method: as §1, with “indicated.” for “indicated. Data was generated using concentrations of IL-23 (256, 64, 16, 4, 1 and 0.25 nM) The data shown for the humanized variants is representative of a number of runs, The chimeric mAb (8C9H6.HC1LC1) was only run once in each experiment, so data shown for this mAb is from that one run,”

The target in experiment [3] is T1, recombinant human IL-23. The experiment in a line: IL-23/IL-23R inhibition ELISA (first protocol, OD490): plate coated with human IL23R Fc chimera, antibody pre-incubated with constant human IL-23, bound IL-23 detected with biotinylated anti-human IL-12; tissue culture supernatant. The procedure:
Chimeric and humanized mAbs were assessed for their ability to neutralise human IL-23 binding to human IL-23 receptor, and cyno IL23 binding to human IL23 receptor. Plates were coated with human IL23R Fc chimera at 1 μg/diluent (bicarbonate buffer). 50 μl/well of this mixture was incubated overnight at 4° C. The plates were then washed twice with Tris Buffered Saline with 0.05% Tween 20 (TBST). Plates were blocked with 1% BSA TBST 100 μl/well for a minimum of 1 hour at room temperature. The plates were then washed twice with Tris Buffered Saline with 0.05% Tween 20 (TBST). Various concentrations of antibody were incubated in a separate plate with a constant concentration of IL-23 for 1 hour at room temperature. 50 ul of each mixture were transferred to the assay plate and incubated at RT for 1 hr. They were then washed twice with Tris Buffered Saline with 0.05% Tween 20 (TBST). Bound IL23 was detected by anti human 1L12 Biotin labelled Ab (R&D systems BAF219) diluted to 100 ng/ml in 1% BSA TBST. 50 μl/well of the biotinylated antibody was added and incubated at RT for 1 hour. The plates were then washed twice with Tris Buffered Saline with 0.05% Tween 20 (TBST). ExtrAvidin-Peroxidase (Sigma E2886) was diluted 1/1000 in 1% BSA TBST, 50 μl/well was added to the plates. […] The plate was read at OD490 nm using the SOftmaxPRO versamax plate reader.

The target of experiment [4] is T1, recombinant human IL-23. The experiment in a line: SPR (Biacore T100), purified antibody captured on anti-human IgG, IL-23 analyte, 1:1 model. The procedure:
Biacore analysis was carried out using a capture surface on a CM5 chip. Anti-human IgG (BR-1008-39) was used as the capturing agent. Anti-human IgG was coupled to a CM5 biosensor chip by primary amine coupling. Humanized antibody was captured on this immobilised surface and defined concentrations of IL-23 were passed over this captured surface. An injection of buffer over the captured antibody surface was used for double-referencing. […] T100 Biacore machine was used to generate the data; all runs were carried out at 25° C. using HBS EP. Data was analysed using the software inherent to the machine and fitted to the 1:1 model of binding. Tables 7 and 8 detail the IL-23 binding analysis carried out on the 8C92H6.HC1LC1 chimera and selected humanized variants in two separate experiments. Data presented in Tables 7 and 8 are from purified antibody samples. The data shown for the humanized variants is representative of a number of runs. The chimeric mAb (8C9H6.HC1LC1) was only run once in each experiment, so data shown for this mAb is from that one run.

B1: chimeric 8C92H6 HC1LC1 (antibody, V domains shown)
VH: QVQLQQSGAELARPGTSVKLSCKASGYTFTSYGITWVKQRTGQGLEWIGENYPRSGNTYYNEKFKGKATLTADKSSSTAYMELRSLTSEDSAVYFCARCEFISTVVAPYYYALDYWGQGTSLVTVS
VL: DIVLTQSPASLAVSLGQKATISCKASKKVTIFGSISALHWYQQKPGQPPKLIYNGAKLESGVSARFSDSGSQNRSPFGNQLSFTLTIDPVEADDAATYYCLQNKEVPYTFGGGTKLEIKR
notes: Murine variable regions with human constant regions; also called 8C92H6.HC1LC1 Chimera; 8C9 chimera
What is called Kd is the free concentration of one partner at which half of the binding sites on the other are occupied at equilibrium, for simple one-to-one binding. By koff is commonly meant the rate constant with which the complex falls apart. As usually defined, the kon is a measure of how fast the partners come together. Regarding B1, in the experiment with recombinant human IL-23 [1], the dissociation constant (Kd) came out at 2200 pM, the koff turned out to be 0.00043 s⁻¹ and the kon was determined as 200000 M⁻¹ s⁻¹. Further, in the experiment with recombinant human IL-23 [2], the dissociation constant Kd was 910 pM, the off-rate constant (koff) came to 0.00029 s⁻¹ and the kon was found to be 320000 M⁻¹ s⁻¹. Moreover, in the experiment with recombinant human IL-23 [3], the “IC50 (read off the curve)” value is ~6 ng/mL.

B2: A3M0 (antibody, human IgG1, kappa, V domains shown)
VH: QVQLVQSGAEVKKPGSSVKVSCKASGYTFTSYGITWVRQAPGQGLEWMGENYPRSGNTYYNEKFKGRVTITADKSTSTAYMELSSLRSEDTAVYYCARSEFISTVVAPYYYALDYWGQGTLVTVSS
VL: DIVMTQSPDSLAVSLGERATINCKASKKVTIFGSISALHWYQQKPGQPPKLIYNGAKLESGVPDRFSGSGSGTDFTLTISSLQAEDVAVYYCLQNKEVPYTFGGGTKVEIKR
notes: Full length chains; also called humanized mAb A3M0
Regarding B2, in the experiment with recombinant human IL-23 [4], the Kd turned out to be 194 pM, the dissociation rate constant (koff) is 0.000237 s⁻¹ and the on-rate (kon) was 1.22e+06 M⁻¹ s⁻¹.

Values taken from patent publication US20090123479A1 (published 2009).
